Measurements from publication PMC10397247.
Blank lines part the entries; values can stand above or below the binder they belong to.

Assays:
[1] = biological target: T1, O9-bN; experiment: two-hybrid library CCNG1;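 also: natural log of median RNA to DNA barcode read ratio; higher means stronger binding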
T1 chain: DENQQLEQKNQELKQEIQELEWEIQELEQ

[2] = biological target: T2, O8-bN; experiment: two-hybrid library CCNG1;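 also: natural log of median RNA to DNA barcode read ratio; higher means stronger binding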
T2 chain: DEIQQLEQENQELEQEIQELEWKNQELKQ

[3] = biological target: T3, 4H3921-AA; experiment: two-hybrid library CCmax; details: mean of both orientations;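 also: natural log of median RNA to DNA barcode read ratio; higher means stronger binding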
T3 chain: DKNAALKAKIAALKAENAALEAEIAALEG

[4] = biological target: T4, 4H3844-AA; experiment: two-hybrid library CCmax; details: mean of both orientations;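 also: natural log of median RNA to DNA barcode read ratio; higher means stronger binding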
T4 chain: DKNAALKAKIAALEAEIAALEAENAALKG

[5] = biological target: T5, 4H794-AA; experiment: two-hybrid library CCmax; details: mean of both orientations;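 also: natural log of median RNA to DNA barcode read ratio; higher means stronger binding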
T5 chain: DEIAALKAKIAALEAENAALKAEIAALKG

[6] = biological target: T6, 4H2617-AA; experiment: two-hybrid library CCmax; details: mean of both orientations;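 also: natural log of median RNA to DNA barcode read ratio; higher means stronger binding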
T6 chain: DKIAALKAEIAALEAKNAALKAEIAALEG

[7] = biological target: T7, 4H993-AA; experiment: two-hybrid library CCmax; details: mean of both orientations
T7 chain: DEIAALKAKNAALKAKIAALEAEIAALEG

[8] = biological target: T8, 4H780-AA; experiment: two-hybrid library CCmax; details: mean of both orientations
T8 chain: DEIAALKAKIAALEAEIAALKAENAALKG

[9] = biological target: T9, 4H2729-AA; experiment: two-hybrid library CCmax; details: mean of both orientations
T9 chain: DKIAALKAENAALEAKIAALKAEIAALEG

[10] = biological target: T10, 4H3427-AA; experiment: two-hybrid library CCmax; details: mean of both orientations
T10 chain: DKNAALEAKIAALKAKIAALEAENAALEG

[11] = biological target: T11, 4H2837-AA; experiment: two-hybrid library CCmax; details: mean of both orientations
T11 chain: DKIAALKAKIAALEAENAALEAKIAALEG

[12] = biological target: T12, 4H2944-AA; experiment: two-hybrid library CCmax; details: mean of both orientations
T12 chain: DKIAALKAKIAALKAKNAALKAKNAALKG

[13] = biological target: T13, 4H881-AA; experiment: two-hybrid library CCmax; details: mean of both orientations
T13 chain: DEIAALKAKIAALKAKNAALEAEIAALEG

[14] = biological target: T14, 4H2393-AA; experiment: two-hybrid library CCmax; details: mean of both orientations
T14 chain: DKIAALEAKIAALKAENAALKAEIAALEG

[15] = biological target: T15, 4H454-AA; experiment: two-hybrid library CCmax; details: mean of both orientations
T15 chain: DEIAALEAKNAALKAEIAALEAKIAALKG

[16] = biological target: T16, 4H3655-AA; experiment: two-hybrid library CCmax; details: mean of both orientations
T16 chain: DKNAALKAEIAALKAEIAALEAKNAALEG

[17] = biological target: T17, 4H335-AA; experiment: two-hybrid library CCmax; details: mean of both orientations
T17 chain: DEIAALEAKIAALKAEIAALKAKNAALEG

[18] = biological target: T18, 4H2505-AA; experiment: two-hybrid library CCmax; details: mean of both orientations
T18 chain: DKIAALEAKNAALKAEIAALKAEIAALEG

[19] = biological target: T19, 4H342-AA; experiment: two-hybrid library CCmax; details: mean of both orientations
T19 chain: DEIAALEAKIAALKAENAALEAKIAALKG

[20] = biological target: T20, 4H3112-AA; experiment: two-hybrid library CCmax; details: mean of both orientations
T20 chain: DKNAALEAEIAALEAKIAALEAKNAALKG

[21] = biological target: T21, 4H2883-AA; experiment: two-hybrid library CCmax; details: mean of both orientations
T21 chain: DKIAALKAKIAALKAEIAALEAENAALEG

[22] = biological target: T22, 4H2575-AA; experiment: two-hybrid library CCmax; details: mean of both orientations
T22 chain: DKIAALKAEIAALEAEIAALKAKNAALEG

[23] = biological target: T23, 4H2754-AA; experiment: two-hybrid library CCmax; details: mean of both orientations
T23 chain: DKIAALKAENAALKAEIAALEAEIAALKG

[24] = biological target: T24, 4H605-AA; experiment: two-hybrid library CCmax; details: mean of both orientations
T24 chain: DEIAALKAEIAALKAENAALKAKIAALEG

[25] = biological target: T25, 4H3343-AA; experiment: two-hybrid library CCmax; details: mean of both orientations
T25 chain: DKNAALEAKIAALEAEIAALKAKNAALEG

[26] = biological target: T26, 4H2949-AA; experiment: two-hybrid library CCmax; details: mean of both orientations
T26 chain: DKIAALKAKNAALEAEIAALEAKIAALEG

[27] = biological target: T27, 4H906-AA; experiment: two-hybrid library CCmax; details: mean of both orientations
T27 chain: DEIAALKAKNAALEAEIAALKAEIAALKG

[28] = biological target: T28, 4H48-AA; experiment: two-hybrid library CCmax; details: mean of both orientations
T28 chain: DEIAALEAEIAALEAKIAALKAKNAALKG

[29] = biological target: T29, 4H678-AA; experiment: two-hybrid library CCmax; details: mean of both orientations
T29 chain: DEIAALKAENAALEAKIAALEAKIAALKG

[30] = biological target: T30, 4H317-AA; experiment: two-hybrid library CCmax; details: mean of both orientations
T30 chain: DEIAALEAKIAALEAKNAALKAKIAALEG

[31] = biological target: T31, 4H2466-AA; experiment: two-hybrid library CCmax
T31 chain: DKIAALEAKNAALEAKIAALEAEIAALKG

[32] = biological target: T32, 4H3627-AA; experiment: two-hybrid library CCmax; details: mean of both orientations
T32 chain: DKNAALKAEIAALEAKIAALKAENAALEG

[33] = biological target: T33, 4H2642-AA; experiment: two-hybrid library CCmax; details: mean of both orientations
T33 chain: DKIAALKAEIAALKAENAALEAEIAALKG

[34] = biological target: T34, 4H3606-AA; experiment: two-hybrid library CCmax; details: mean of both orientations
T34 chain: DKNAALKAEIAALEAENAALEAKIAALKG

[35] = biological target: T35, 4H429-AA; experiment: two-hybrid library CCmax; details: mean of both orientations
T35 chain: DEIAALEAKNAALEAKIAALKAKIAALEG

[36] = biological target: T36, 4H2354-AA; experiment: two-hybrid library CCmax
T36 chain: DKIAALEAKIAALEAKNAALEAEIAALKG

[37] = biological target: T37, 4H566-AA; experiment: two-hybrid library CCmax; details: mean of both orientations
T37 chain: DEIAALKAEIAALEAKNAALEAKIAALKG

[38] = biological target: T38, 4H717-AA; experiment: two-hybrid library CCmax; details: mean of both orientations
T38 chain: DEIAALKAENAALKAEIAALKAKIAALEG

interaction score [1]: -0.872
interaction score [2]: 0.371
Binder: DEIQQLEQENQELEQEIQELEWKNQELKQ [O8-bN]

interaction score [3]: -2.02
interaction score [4]: -1.42
interaction score [5]: -1.09
interaction score [6]: 0.763
interaction score [7]: -1.38
interaction score [8]: -1.35
interaction score [9]: -1.03
interaction score [10]: -1.67
interaction score [11]: -0.0493
interaction score [12]: -1.22
interaction score [13]: -0.238
interaction score [14]: -0.967
interaction score [15]: -0.846
interaction score [16]: -1.28
interaction score [17]: -1.35
interaction score [18]: 0.629
interaction score [19]: 1.11
interaction score [20]: -1.26
interaction score [21]: -1.31
interaction score [22]: -1
interaction score [23]: -1.42
interaction score [24]: -1.45
interaction score [25]: -1.47
interaction score [26]: -1.56
interaction score [27]: -1.21
interaction score [28]: -1.39
interaction score [29]: -1.46
interaction score [30]: 0.391
interaction score [31]: -1.18
interaction score [32]: -1.59
interaction score [33]: -0.757
interaction score [34]: -0.995
interaction score [35]: -1.58
interaction score [36]: 2.28
interaction score [37]: 0.225
interaction score [38]: -1.79
Binder: DKIAALEAKIAALEAKNAALEAEIAALKG [4H2354-AA]
